Results as given in paper doi:10.1101/768242 (bioRxiv, 2019).

Tests used:
[1] = molecular target: GSK3β (human, UniProt P49841 1-420, phosphorylated on the activation loop Tyr216); assay: BLI
[2] = molecular target: T1, phospho-Ser45-β-catenin (pS45-β-catenin) (human, UniProt P35222 1-781, phosphoserine at 45); assay: BLI
T1 sequence: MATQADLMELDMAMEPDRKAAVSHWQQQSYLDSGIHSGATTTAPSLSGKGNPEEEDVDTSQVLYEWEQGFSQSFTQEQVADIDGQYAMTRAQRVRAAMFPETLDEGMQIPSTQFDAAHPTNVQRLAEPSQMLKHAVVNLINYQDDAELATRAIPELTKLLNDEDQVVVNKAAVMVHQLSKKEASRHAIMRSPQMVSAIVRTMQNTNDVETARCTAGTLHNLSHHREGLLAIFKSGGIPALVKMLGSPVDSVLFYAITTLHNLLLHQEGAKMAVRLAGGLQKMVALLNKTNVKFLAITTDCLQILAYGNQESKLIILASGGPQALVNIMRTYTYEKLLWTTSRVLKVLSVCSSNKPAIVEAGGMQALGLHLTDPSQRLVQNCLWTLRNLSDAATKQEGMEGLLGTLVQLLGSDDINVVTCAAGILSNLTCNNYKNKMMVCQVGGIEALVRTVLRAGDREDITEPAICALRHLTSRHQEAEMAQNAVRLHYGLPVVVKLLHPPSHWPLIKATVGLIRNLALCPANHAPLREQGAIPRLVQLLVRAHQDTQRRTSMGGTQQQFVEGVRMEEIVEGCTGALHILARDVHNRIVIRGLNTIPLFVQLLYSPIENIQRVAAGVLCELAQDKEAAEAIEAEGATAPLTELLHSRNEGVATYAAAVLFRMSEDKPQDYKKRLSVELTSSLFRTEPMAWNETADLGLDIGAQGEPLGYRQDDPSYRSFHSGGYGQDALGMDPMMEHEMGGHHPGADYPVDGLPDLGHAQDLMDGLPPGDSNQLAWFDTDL

Sequence of GSK3β (P49841 whole entry): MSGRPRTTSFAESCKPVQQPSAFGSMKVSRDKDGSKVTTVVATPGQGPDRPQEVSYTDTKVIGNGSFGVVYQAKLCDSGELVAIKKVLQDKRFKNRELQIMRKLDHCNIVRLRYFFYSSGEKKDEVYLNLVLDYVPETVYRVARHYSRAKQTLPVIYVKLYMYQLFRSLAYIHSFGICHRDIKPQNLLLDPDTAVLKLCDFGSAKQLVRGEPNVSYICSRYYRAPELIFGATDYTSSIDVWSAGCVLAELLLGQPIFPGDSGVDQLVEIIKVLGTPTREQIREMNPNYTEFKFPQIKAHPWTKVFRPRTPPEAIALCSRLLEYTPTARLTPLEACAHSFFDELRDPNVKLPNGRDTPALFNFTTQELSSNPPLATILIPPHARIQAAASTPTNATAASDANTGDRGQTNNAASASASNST

B1: Axin_(384-518) (miniAxin) (domain or fragment)
chain: EPQKFAEELIHRLEAVQRTREAEEKLEERLKRVRMEEEGEDGDPSSGPPGPCHKLPPAPAWHHFPPRCVDMGCAGLRDAHEENPESILDEHVQRVLRTPGRQSPGPGHRSPDSGHVAKMPVALGGAASGHGKHVP
B1 showed a Kd [1] of 16 nM and a Kd [2] of 4000 nM.
